B1: Suppressor of kinetochore protein 1 (Schizosaccharomyces pombe (strain ATCC 38366 / 972)), Q9Y709 (parent)
chain: MSKIKLISSDNEEFVVDQLIAERSMLIKNMLEDVGEINVPIPLPNVSSNVLRKVLEWCEHHKNDLYSGTEEESDIRLKKSTDIDEWDRKFMAVDQEMLFEIVLASNYLDIKPLLDTGCKTVANMIRGKSPEDIRKTFNIPNDFTPEEEEQIRKENEWAEDR
partner: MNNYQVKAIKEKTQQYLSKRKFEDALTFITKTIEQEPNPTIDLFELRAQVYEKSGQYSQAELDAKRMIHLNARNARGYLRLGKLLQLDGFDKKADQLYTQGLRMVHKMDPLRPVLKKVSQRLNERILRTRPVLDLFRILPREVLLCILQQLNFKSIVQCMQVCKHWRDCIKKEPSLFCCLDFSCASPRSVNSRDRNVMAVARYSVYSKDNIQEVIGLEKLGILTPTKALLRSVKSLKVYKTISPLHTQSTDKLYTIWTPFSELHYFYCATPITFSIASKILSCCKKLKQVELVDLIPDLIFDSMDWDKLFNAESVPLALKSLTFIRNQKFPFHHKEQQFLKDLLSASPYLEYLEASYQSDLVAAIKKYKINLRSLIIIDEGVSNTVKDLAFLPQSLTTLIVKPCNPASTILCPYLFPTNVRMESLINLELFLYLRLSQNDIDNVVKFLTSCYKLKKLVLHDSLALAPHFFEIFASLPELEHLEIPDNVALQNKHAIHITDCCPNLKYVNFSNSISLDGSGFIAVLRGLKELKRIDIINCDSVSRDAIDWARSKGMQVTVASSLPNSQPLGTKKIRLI
B2: Suppressor of kinetochore protein 1 (Schizosaccharomyces pombe (strain ATCC 38366 / 972)), Q9Y709 (parent)
chain: B1 chain
partner: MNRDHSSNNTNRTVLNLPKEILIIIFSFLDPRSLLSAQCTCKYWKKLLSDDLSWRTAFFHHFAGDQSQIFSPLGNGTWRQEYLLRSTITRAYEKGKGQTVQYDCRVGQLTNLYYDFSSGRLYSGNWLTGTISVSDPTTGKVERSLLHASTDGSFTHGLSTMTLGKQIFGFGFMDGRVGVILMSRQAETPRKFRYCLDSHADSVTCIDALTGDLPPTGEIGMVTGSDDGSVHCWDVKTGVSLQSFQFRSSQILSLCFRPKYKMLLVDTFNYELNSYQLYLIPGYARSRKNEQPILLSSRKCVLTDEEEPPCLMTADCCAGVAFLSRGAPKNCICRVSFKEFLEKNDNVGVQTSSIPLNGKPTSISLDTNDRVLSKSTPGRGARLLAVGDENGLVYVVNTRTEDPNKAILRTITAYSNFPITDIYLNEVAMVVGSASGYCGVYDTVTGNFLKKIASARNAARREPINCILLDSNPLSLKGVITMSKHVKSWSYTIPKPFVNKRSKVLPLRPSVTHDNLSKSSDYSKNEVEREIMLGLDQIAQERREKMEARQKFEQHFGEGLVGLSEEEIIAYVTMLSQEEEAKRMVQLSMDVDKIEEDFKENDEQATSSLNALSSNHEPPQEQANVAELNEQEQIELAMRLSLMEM
B3: Suppressor of kinetochore protein 1 (Schizosaccharomyces pombe (strain ATCC 38366 / 972)), Q9Y709 (parent)
chain: B1 chain
partner: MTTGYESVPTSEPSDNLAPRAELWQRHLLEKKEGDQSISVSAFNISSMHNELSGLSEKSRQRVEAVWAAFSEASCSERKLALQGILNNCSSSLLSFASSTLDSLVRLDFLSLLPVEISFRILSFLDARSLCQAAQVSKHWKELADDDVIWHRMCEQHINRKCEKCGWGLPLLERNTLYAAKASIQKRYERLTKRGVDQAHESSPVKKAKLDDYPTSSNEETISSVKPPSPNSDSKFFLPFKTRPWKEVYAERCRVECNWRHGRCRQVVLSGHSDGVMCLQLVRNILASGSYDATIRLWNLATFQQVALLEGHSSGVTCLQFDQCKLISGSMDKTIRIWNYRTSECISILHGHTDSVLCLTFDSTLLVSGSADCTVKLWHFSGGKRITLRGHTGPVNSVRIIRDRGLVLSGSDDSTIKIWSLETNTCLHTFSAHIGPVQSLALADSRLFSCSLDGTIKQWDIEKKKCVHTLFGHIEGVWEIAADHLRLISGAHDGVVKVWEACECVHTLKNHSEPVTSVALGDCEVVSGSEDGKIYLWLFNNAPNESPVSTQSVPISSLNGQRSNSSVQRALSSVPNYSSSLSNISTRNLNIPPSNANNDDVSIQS

Variants of: B1
Details: with pof3_schpo pof3, O74991

effect of a mutation on the interaction	Variant
decreasing interaction	MSKIKLISSDNEEFVVDQLIAERSMLIKNMLEDVGEINVPIPLPNVSSNVLRKVLEWCEHHKNDLYSGTEEESDIRLKKSTDIDEWDRKFMAVDQEMLFEIVLASNYLDTKPLLDTGCKTVANMIRGKSPEDIRKTFNIPNDFTPEEEEQIRKENEWAEDR

Variants of: B2
Details: with pof10_schpo pof10, Q9P7W4

effect of a mutation on the interaction	Variant
decreasing interaction	MSKIKLISSDNEEFVVDQLIAERSMLIKNMLEDVGEINVPIPLPNVSSNVLRKVLEWCEHHKNDLYSGTEEESDIRLKKSTDIDEWDRKFMAVDQEMLFEIVLASNYLDTKPLLDTGCKTVANMIRGKSPEDIRKTFNIPNDFTPEEEEQIRKENEWAEDR

Variants of: B3
Details: with pof1_schpo pof1, P87053

effect of a mutation on the interaction	Variant
decreasing interaction	MSKIKLISSDNEEFVVDQLIAERSMLIKNMLEDVGEINVPIPLPNVSSNVLRKVLEWCEHHKNDLYSGTEEESDIRLKKSTDIDEWDRKFMAVDQEMLFEIVLASNYLDTKPLLDTGCKTVANMIRGKSPEDIRKTFNIPNDFTPEEEEQIRKENEWAEDR

Source: IntAct's records for PubMed 15147268
